Source: the Human Domainome abundance scans (Beltran et al. 2025)
± gives the uncertainty stated by the source.

B1: Membrane-associated guanylate kinase, WW and PDZ domain-containing protein 1, residues 352 to 401; numbered along this chain, Q96QZ7 (parent)
chain: TEELDSELELPAGWEKIEDPVYGIYYVDHINRKTQYENPVLEAKRKKQLE

Variants of: B1
Assay: abundance fitness (aPCA) (normalised: wild type 0, dead -1); higher = more abundant; growth selection in yeast, the domain comes from the species named
Details: Homo sapiens

Variant | abundance fitness
H29D | -0.535 ± 0.091
H29L | -0.156 ± 0.042
I24Y | -0.569 ± 0.14
I24F | 0.015 ± 0.45
I24P | -0.057 ± 0.055
I24Q | -0.225 ± 0.1
I24D | -0.387 ± 0.16
I24E | 0.067 ± 0.082
E50Q | -0.438 ± 0.18
E50R | -0.841 ± 0.23
E50W | 0.058 ± 0.38
E50I | -0.273 ± 0.33
Y26N | -0.54 ± 0.16
Y26Q | -0.385 ± 0.069
Y26M | -0.552 ± 0.08
Y26V | -0.668 ± 0.05
Y26G | -0.395 ± 0.055
Y26A | -0.321 ± 0.044
Y26L | -0.741 ± 0.074
Y26F | -0.137 ± 0.071
L4N | -0.333 ± 0.14
L4R | 0.103 ± 0.058
L4W | -0.237 ± 0.073
L4H | 0.202 ± 0.095

Variant | abundance fitness
L4D | -0.682 ± 0.14
L4A | -0.101 ± 0.075
L4I | 0.349 ± 0.11
L4T | -0.021 ± 0.082
K16F | -0.688 ± 0.27
K16P | -1.11 ± 0.43
K16T | -0.49 ± 0.08
K16C | -0.245 ± 0.042
K44T | -0.2 ± 0.07
K44A | -0.079 ± 0.051
K44E | 0.019 ± 0.043
K44S | -0.106 ± 0.05
Y25I | -0.053 ± 0.09
Y25E | -0.26 ± 0.082
Y25Q | -0.14 ± 0.073
Y25N | -0.447 ± 0.077
Y25M | -0.033 ± 0.075
Y25P | -0.367 ± 0.077
Y25T | -0.266 ± 0.061
Y25S | -0.119 ± 0.044
Y25K | 0.007 ± 0.083
I17E | -0.408 ± 0.059
I17L | -0.065 ± 0.069
I17S | -0.484 ± 0.061

Variant | abundance fitness
I17P | -0.836 ± 0.14
I17H | -0.241 ± 0.11
I17C | -0.252 ± 0.077
I17R | -0.01 ± 0.057
I17G | -0.602 ± 0.058
I17Y | -0.06 ± 0.11
I17Q | -0.809 ± 0.16
E2L | -0.35 ± 0.15
E2K | -0.214 ± 0.17
E2V | -0.02 ± 0.042
E2R | -0.095 ± 0.057
E2T | 0.129 ± 0.1
E2C | 0.319 ± 0.12
P11C | -0.249 ± 0.095
P11T | -0.194 ± 0.082
P11H | -0.554 ± 0.17
P11R | -0.494 ± 0.047
P11F | -0.515 ± 0.072
I30W | -0.431 ± 0.072
I30C | -0.322 ± 0.077
I30T | -0.256 ± 0.078
I30A | -0.093 ± 0.041
I30K | -0.078 ± 0.067
L49V | -0.138 ± 0.063

Variant | abundance fitness
L49F | -0.328 ± 0.12
L49M | 0.154 ± 0.065
L49P | -0.049 ± 0.064
N38P | -0.481 ± 0.1
N38K | -0.444 ± 0.1
N38M | -0.116 ± 0.064
N38D | -0.158 ± 0.064
N38Q | -0.387 ± 0.1
N38E | -0.254 ± 0.084
N38C | -0.747 ± 0.051
Q48F | -0.339 ± 0.13
Q48D | 0.017 ± 0.073
Q48W | -0.26 ± 0.075
Q48R | -0.227 ± 0.052
Q48M | 0.001 ± 0.042
A12D | -0.09 ± 0.12
A12S | -0.038 ± 0.054
A12L | -0.003 ± 0.056
A12H | 0.07 ± 0.1
A12Q | -0.237 ± 0.096
A12G | -0.073 ± 0.057
A12V | 0.019 ± 0.068
A12F | 0.107 ± 0.093
A12C | 0.12 ± 0.085

Variant | abundance fitness
V40M | -0.033 ± 0.05
V40G | -0.047 ± 0.053
V40Q | -0.385 ± 0.069
V40Y | -0.237 ± 0.086
V40S | -0.026 ± 0.061
V40P | -0.404 ± 0.099
V40I | -0.197 ± 0.087
V40W | -0.177 ± 0.053
V40F | -0.385 ± 0.1
V40E | -0.25 ± 0.073
V40L | -0.016 ± 0.038
E18R | -0.461 ± 0.039
E18F | -0.263 ± 0.067
E18Q | -0.794 ± 0.45
E18I | -0.196 ± 0.11
E18M | -0.231 ± 0.054
E18K | -0.269 ± 0.12
E18P | -0.549 ± 0.13
Y22W | -0.186 ± 0.077
Y22S | -0.035 ± 0.043
Y22F | -0.122 ± 0.06
Y22K | 0.082 ± 0.055
Y22P | -0.24 ± 0.094
Y22E | -0.004 ± 0.06

Variant | abundance fitness
Y22I | -0.162 ± 0.092
L41W | -0.114 ± 0.042
L41F | 0.064 ± 0.087
L41M | 0.03 ± 0.074
L41V | 0.001 ± 0.045
L41Q | 0.001 ± 0.044
L41K | -0.035 ± 0.078
Q35Y | -0.15 ± 0.15
Q35A | -0.26 ± 0.046
Q35I | -0.571 ± 0.2
Q35W | -0.48 ± 0.055
Q35G | -0.487 ± 0.041
Q35F | -0.68 ± 0.27
Q35H | -0.588 ± 0.18
Q35M | -0.18 ± 0.078
E37A | -0.192 ± 0.053
E37M | -0.296 ± 0.07
E37W | -0.47 ± 0.046
E37R | -0.401 ± 0.058
E37T | -0.177 ± 0.057
E37S | -0.162 ± 0.042
E37P | -0.56 ± 0.087
E37K | -0.282 ± 0.11
E37D | -0.151 ± 0.079

Variant | abundance fitness
N31M | -0.444 ± 0.088
N31Q | -0.388 ± 0.12
N31V | -0.756 ± 0.055
N31Y | -0.671 ± 0.085
N31A | -0.188 ± 0.051
N31R | -0.201 ± 0.061
E9M | -0.079 ± 0.073
E9T | -0.102 ± 0.051
E9F | -0.441 ± 0.059
E9S | -0.103 ± 0.045
D19A | -0.551 ± 0.086
D19G | -0.596 ± 0.044
D19W | -1.03 ± 0.085
D19N | -0.611 ± 0.16
D19R | -0.855 ± 0.085
K46N | -0.41 ± 0.11
K46A | -0.063 ± 0.058
K46C | -0.103 ± 0.046
K46R | -0.094 ± 0.056
K46H | 0.173 ± 0.1
K46L | -0.133 ± 0.064
K46W | -0.331 ± 0.056
E3P | -0.744 ± 0.33
